Test results taken from patent US20240076386A1 (Pfizer, published 2024).
Residue numbers refer to the chain shown, from its start.

T1: recombinant histidine-tagged human E-selectin (Sino Biologicals; 13025-H08H) (human, UniProt P16581 22-556)
T1 construct: also called recombinant human E-selectin; soluble recombinant human E-selectin
T1 sequence (looked up): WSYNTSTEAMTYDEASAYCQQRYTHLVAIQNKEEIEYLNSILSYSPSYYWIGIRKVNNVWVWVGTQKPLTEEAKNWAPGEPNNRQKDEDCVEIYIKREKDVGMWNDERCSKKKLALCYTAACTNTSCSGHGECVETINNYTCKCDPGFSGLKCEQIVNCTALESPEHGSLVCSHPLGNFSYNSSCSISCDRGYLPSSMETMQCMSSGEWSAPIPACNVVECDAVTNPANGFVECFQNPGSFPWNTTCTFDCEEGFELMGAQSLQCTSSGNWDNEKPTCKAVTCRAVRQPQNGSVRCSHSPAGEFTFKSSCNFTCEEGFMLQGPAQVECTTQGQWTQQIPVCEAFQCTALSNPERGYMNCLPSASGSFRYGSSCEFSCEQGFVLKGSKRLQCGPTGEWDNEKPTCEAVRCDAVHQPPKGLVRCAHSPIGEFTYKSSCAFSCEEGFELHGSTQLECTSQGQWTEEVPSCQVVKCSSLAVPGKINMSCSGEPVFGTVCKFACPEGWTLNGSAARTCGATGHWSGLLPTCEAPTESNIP

T2: recombinant histidine-tagged cynomolgus monkey E-selectin (Sino Biologicals; 190169-C08H) (cynomolgus monkey, UniProt A0A2K5U7H9 22-554)
T2 construct: also called recombinant cynomolgus monkey E-selectin
T2 sequence: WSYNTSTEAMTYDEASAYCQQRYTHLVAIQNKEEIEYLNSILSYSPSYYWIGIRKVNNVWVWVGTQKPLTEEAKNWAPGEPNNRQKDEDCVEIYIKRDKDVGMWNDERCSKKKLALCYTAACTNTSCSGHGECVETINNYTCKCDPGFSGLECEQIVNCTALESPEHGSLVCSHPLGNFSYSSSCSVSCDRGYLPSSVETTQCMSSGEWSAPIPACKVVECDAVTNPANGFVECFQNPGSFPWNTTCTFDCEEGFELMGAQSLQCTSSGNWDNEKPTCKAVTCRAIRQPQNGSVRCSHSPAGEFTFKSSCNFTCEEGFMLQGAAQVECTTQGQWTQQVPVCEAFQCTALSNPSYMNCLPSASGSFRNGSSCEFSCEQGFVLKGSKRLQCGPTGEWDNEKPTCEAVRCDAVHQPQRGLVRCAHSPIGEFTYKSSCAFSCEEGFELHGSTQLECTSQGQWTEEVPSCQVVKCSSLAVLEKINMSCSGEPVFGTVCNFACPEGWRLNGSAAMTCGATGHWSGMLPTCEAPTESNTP

T3: free soluble human E-selectin in human serum (human, UniProt P16581 22-556, limits assumed)
T3 construct: also called endogenous human E-selectin
T3 sequence (looked up): T1 sequence (looked up)

B1: humanized anti-E-selectin antibody 0841 (antibody, human IgG1, kappa, V domains shown)
VH: EVQLVESGGGLVQPGGSLRLSCAASGYNIRSSYMHWVRQAPGKGLEWVARIDPANGNTIYAEKFKIRFTISADNAKNSAYLQMNSLRAEDTAVYYCAMDLYSTSEYWGQGTLVTVSS
VL: DIQMTQSPSSLSASVGDRVTITCKTSQNINRYLNWYQQKPGKAPKLLIYNANSLQTGVPSRFSGSGSGTDFTLTISSLQPEDFATYFCLQDNSWPLTFGQGTKVEIKR
notes: effector-null human IgG1, kappa
B2: optimized anti-E-selectin antibody 1444 (antibody, human IgG1, kappa, V domains shown)
VH: B1 VH with N28A, S32A, A61V, E62D, K63S, F64V, K65T, I66G
VL: B1 VL with N30E, N50A, N52S, T56S, S93A
notes: as for B1
B3: optimized anti-E-selectin antibody 1284 (antibody, human IgG1, kappa, V domains shown)
VH: B1 VH with N28A, S32A, A61V, K63S, F64V, K65E, I66G
VL: B1 VL with N30E, N50A, N52S, T56S, S93A
notes: as for B1
B4: optimized anti-E-selectin antibody 1282 (antibody, human IgG1, kappa, V domains shown)
VH: B1 VH with N28A, S32A, A61V, E62D, K63S, F64V, K65E, I66G
VL: B1 VL with N30E, N50A, N52S, T56S, S93A
notes: as for B1
B5: optimized anti-E-selectin antibody 1448 (antibody, human IgG1, kappa, V domains shown)
VH: B1 VH with N28A, S32A, A61V, E62D, K63S, F64V, I66E
VL: B1 VL with N30E, N50A, N52S, T56S, S93A
notes: as for B1

The binders below were run against T1, recombinant histidine-tagged human … (assay: direct binding ELISA, His-tagged selectin on plate).
Experimental: (§1) Recombinant histidine tagged human P-, E- or L-selectin (Sino Biologicals), mouse E-selectin (Sino Biologicals), rat E-selectin (Sino Biologicals) and Cynomolgus monkey E-selectin (Sino Biologicals) stock solutions were prepared to a final concentration of 1 μg/mL in phosphate buffered saline without calcium and magnesium. Controls included an L-selectin directed antibody (BioLegend; 304811) or P-selectin directed antibody or a negative control IgG. One hundred μL per well of the diluted recombinant selectin proteins were added into a Ni-NTA HisSorb 96 well plate (Qiagen; 35061). Plates were incubated on an orbital shaker at room temperature for 2 hours. Following the incubation, the plates were washed 3 times with 200 μL of wash buffer (50 mM TRIS [trisaminomethane]; 150 mM sodium chloride; 0.05% polysorbate 20, pH 7.4). To decrease nonspecific binding, plates were treated with 200 μL of blocking buffer (BD Opteia buffer; 555213; BD Biosciences), incubated on an orbital shaker for 1 hour at room temperature and washed as described above. […] One hundred μL specific detection antibodies (described below) were added and incubated for 1 hour: [0556] […] Anti L-selectin and anti-rat-E-selectin antibodies were detected using 1 to 25000 dilution of Peroxidase-conjugated AffiniPure Goat Anti-Mouse IgG (H+L); (Jackson ImnnunoResearch Lab).
(§2) Plates were washed and 100 μL per well of 1-Step Ultra TMB substrate (Thermo Scientific) was added and incubated for 5 minutes at room temperature. Reactions were stopped with 100 μL of 2 M sulfuric acid and absorbance read at 450 nm (Spectramax M5e).

EC50 [nM]	Binder
0.17	B1
0.12	B2
0.1	B3

Each binder was assayed against T2, recombinant histidine-tagged cynomolgus … (assay: direct binding ELISA, His-tagged selectin on plate).
Experimental: as §1, §2

EC50 [nM]	Binder
0.081	B1
0.093	B2
0.082	B3

The binders below were run against T3, free soluble human E-selectin in human … (assay: IP-LC/MS/MS of free soluble E-selectin in human serum, capture by biotinylated 0164).
Experimental: This method quantified free soluble human E-selectin in human serum or free soluble monkey E-selectin in cynomolgus monkey serum. The method used 50 μL of serum in 250 μL of PBS which was incubated overnight at 4° C. […] After incubation, 30 μL of Invitrogen T1 streptavidin magnetic beads were added to each sample followed by incubation for 40 minutes at room temperature (shaking at 1000 rpm). Using a Hamilton Microlabstar, the magnetic beads were then washed two times with PBS/0.05% Tween-20 followed by one wash with PBS. Soluble E-selectin was then eluted from the beads with 145 μL of 30 mM hydrochloric acid (HCl) and neutralized with 32 μL of 1 M Tris HCl, pH 8. Subsequently 50 fmol of stable isotope labeled (SIL) internal standard was added, followed by the addition of dithiothreitol (DTT, 10 μL×50 mM). After incubating 35 minutes at 60° C. the samples were allowed to cool to room temperature prior to the addition of iodoacetamide (IAA, 10 μL×100 mM). Samples were then placed in the dark for 30 minutes to which 1 μg of Promega LysC/trypsin (10 μL×100 […]) was added and then digested overnight at 37° C.
After overnight incubation, 50 μL of prepared sample was injected onto the nano ESILC-MS/MS.

IC50 [nM]	IC90 [nM]	Binder
2.4	4.9	B4
1.8	8.6	B5
1.2	6.5	B2
1.1	4.8	B3
